Changes are numbered by the printed parent chain. In names and notes the source's numbering stands.
Biological target: the molecule itself
Assay: SEC; ternary complex co-expressed in E. coli, captured on Ni-NTA by His6-Atg29, then Superose 6 10/300GL in 20 mM Tris pH 8, 200 mM NaCl, 0.1 mM TCEP; peak fractions analysed by SDS-PAGE

B1: Atg17, wild type (natural protein, Saccharomyces cerevisiae, UniProt Q06410 1-417, looked up)
chain: MNEADVTKFVNNARKTLTDAQLLCSSANLRIVDIKKKLSSWQLSISKLNFLIVGLRQQGKFLYTILKEGIGTKLIQKQWNQAVLVVLVDEMKYWQYEITSKVQRLDGIVNELSISEKDDTDPSKLGDYISRDNVNLLNDKLKEVPVIERQIENIKLQYENMVRKVNKELIDTKLTDVTQKFQSKFGIDNLMETNVAEQFSRELTDLEKDLAEIMNSLTQHFDKTLLLQDKKIDNDEREELFKVVQGDDKELYNIFKTLHEVIDDVDKTILNLGQFLQAKIKEKTELHSEVSEIINDFNRNLEYLLIFKDISNLIDSFKNSCTQDIQTTKELCEFYDNFEESYGNLVLEAKRRKDVANRMKTILKDCEKQLQNLDAQDQEERQNFIAENGTYLPETIWPGKIDDFSSLYTLNYNVKNP
notes: Atg17, Saccharomyces cerevisiae; The Atg17 chain of m1; source: E. coli BL21 (DE3), co-expressed with Atg31 and His6-Atg29 from pST39, purified (Ni-NTA, Superose 6)
B1: binds.

B2: Atg17 mutant M3 (K8D/R14D/K249D) (natural protein, Saccharomyces cerevisiae, UniProt Q06410 1-417, looked up)
chain: B1 chain with K8D, R14D, K249D
notes: Atg17, Saccharomyces cerevisiae; The Atg17 chain of m4; source: E. coli BL21 (DE3), co-expressed with Atg31 and His6-Atg29 from pST39, purified (Ni-NTA, Superose 6)
B2: binds.

B3: Atg17 mutant M2 (K318D/K329D/Y93E/W94E) (natural protein, Saccharomyces cerevisiae, UniProt Q06410 1-417, looked up)
chain: B1 chain with Y93E, W94E, K318D, K329D
notes: Atg17, Saccharomyces cerevisiae; The Atg17 chain of m3; source: E. coli BL21 (DE3), co-expressed with Atg31 and His6-Atg29 from pST39, purified (Ni-NTA, Superose 6)
B3: binds.

B4: Atg17 mutant M1 (K318D/Q326D/K329D) (natural protein, Saccharomyces cerevisiae, UniProt Q06410 1-417, looked up)
chain: B1 chain with K318D, Q326D, K329D
notes: Atg17, Saccharomyces cerevisiae; The Atg17 chain of m2; source: E. coli BL21 (DE3), co-expressed with Atg31 and His6-Atg29 from pST39, purified (Ni-NTA, Superose 6)
B4: binds.

B5: Atg17 mutant M4 (K164D/K173D/R299D) (natural protein, Saccharomyces cerevisiae, UniProt Q06410 1-417, looked up)
chain: B1 chain with K164D, K173D, R299D
notes: Atg17, Saccharomyces cerevisiae; The Atg17 chain of m5; source: E. coli BL21 (DE3), co-expressed with Atg31 and His6-Atg29 from pST39, purified (Ni-NTA, Superose 6)
B5: binds.

B6: Atg17 mutant M5 (K92D/L141D) (natural protein, Saccharomyces cerevisiae, UniProt Q06410 1-417, looked up)
chain: B1 chain with K92D, L141D
notes: Atg17, Saccharomyces cerevisiae; The Atg17 chain of m6; source: E. coli BL21 (DE3), co-expressed with Atg31 and His6-Atg29 from pST39, purified (Ni-NTA, Superose 6)
B6: binds.
